B1: Pistol ribozyme (parent)
chain: GGGUCGUUGUUCCAUAAUCGCGUGGAUAUGGCACGCAAGUUUCUACCGGGCACCGUAAAUGUCCGACUGGAGCCGUUCGGGCGGCUAUAAACAGACCUCAGGCCCGAAGCGUGGCGGCACCUGCCGCCGGUGGUAAAAAAGAUCGGAAGAGCACACGUCU

In this data set the parent is B1. In words: aptazyme ON/OFF ratio, guanine; higher = stronger switching; co-transcriptional cleavage with and without guanine.
On to GGGUCGCCUUUAUAUAAUCGCGUGGAUAUGGCACGCAAGUUUCUACCGGGCACCGUAAAUGUCCGACUGGAGCCGUUCGGGCGGCUAUAAACAGACCUCAGGCCCGAAGCGUGGCGGCACCUGCCGCCGGUGGUAAAAAAGAUCGGAAGAGCACACGUCU [U7C U8C G9U C12A C13U], for which the “aptazyme ON/OFF ratio” value was 1.22.
For the variant GGGUCGCCUUUAGAUAAUCGCGUGGAUAUGGCACGCAAGUUUCUACCGGGCACCGUAAAUGUCCGACUGGAGCCGUUCGGGCGGCUAUAAACAGACCUCAGGCCCGAAGCGUGGCGGCACCUGCCGCCGGUGGUAAAAAAGAUCGGAAGAGCACACGUCU [U7C U8C G9U C12A C13G], the “aptazyme ON/OFF ratio” value was 1.1.
To GGGUCGCCUUUAAAUAAUCGCGUGGAUAUGGCACGCAAGUUUCUACCGGGCACCGUAAAUGUCCGACUGGAGCCGUUCGGGCGGCUAUAAACAGACCUCAGGCCCGAAGCGUGGCGGCACCUGCCGCCGGUGGUAAAAAAGAUCGGAAGAGCACACGUCU [U7C U8C G9U C12A C13A] belongs 1.05; to GGGUCGCCCUCCAAUAAUCGCGUGGAUAUGGCACGCAAGUUUCUACCGGGCACCGUAAAUGUCCGACUGGAGCCGUUCGGGCGGCUAUAAACAGACCUCAGGCCCGAAGCGUGGCGGCACCUGCCGCCGGUGGUAAAAAAGAUCGGAAGAGCACACGUCU [U7C U8C G9C U11C C13A], 1.28.
For the variant GGGUCGCCCUCCUAUAAUCGCGUGGAUAUGGCACGCAAGUUUCUACCGGGCACCGUAAAUGUCCGACUGGAGCCGUUCGGGCGGCUAUAAACAGACCUCAGGCCCGAAGCGUGGCGGCACCUGCCGCCGGUGGUAAAAAAGAUCGGAAGAGCACACGUCU [U7C U8C G9C U11C C13U], the “aptazyme ON/OFF ratio” value is 1.24.
To GGGUCGCCCUCCGAUAAUCGCGUGGAUAUGGCACGCAAGUUUCUACCGGGCACCGUAAAUGUCCGACUGGAGCCGUUCGGGCGGCUAUAAACAGACCUCAGGCCCGAAGCGUGGCGGCACCUGCCGCCGGUGGUAAAAAAGAUCGGAAGAGCACACGUCU [U7C U8C G9C U11C C13G] belongs 1.04; to GGGUCGCCUUUGCAUAAUCGCGUGGAUAUGGCACGCAAGUUUCUACCGGGCACCGUAAAUGUCCGACUGGAGCCGUUCGGGCGGCUAUAAACAGACCUCAGGCCCGAAGCGUGGCGGCACCUGCCGCCGGUGGUAAAAAAGAUCGGAAGAGCACACGUCU [U7C U8C G9U C12G], 1.29.
To GGGUCGCCUUUUCAUAAUCGCGUGGAUAUGGCACGCAAGUUUCUACCGGGCACCGUAAAUGUCCGACUGGAGCCGUUCGGGCGGCUAUAAACAGACCUCAGGCCCGAAGCGUGGCGGCACCUGCCGCCGGUGGUAAAAAAGAUCGGAAGAGCACACGUCU [U7C U8C G9U C12U] belongs 1.61; to GGGUCGCCUUUACAUAAUCGCGUGGAUAUGGCACGCAAGUUUCUACCGGGCACCGUAAAUGUCCGACUGGAGCCGUUCGGGCGGCUAUAAACAGACCUCAGGCCCGAAGCGUGGCGGCACCUGCCGCCGGUGGUAAAAAAGAUCGGAAGAGCACACGUCU [U7C U8C G9U C12A], 1.36.
For GGGUCGCCUUUUAAUAAUCGCGUGGAUAUGGCACGCAAGUUUCUACCGGGCACCGUAAAUGUCCGACUGGAGCCGUUCGGGCGGCUAUAAACAGACCUCAGGCCCGAAGCGUGGCGGCACCUGCCGCCGGUGGUAAAAAAGAUCGGAAGAGCACACGUCU [U7C U8C G9U C12U C13A], the “aptazyme ON/OFF ratio” value came to 1.06.
In the case of GGGUCGCCUUUUUAUAAUCGCGUGGAUAUGGCACGCAAGUUUCUACCGGGCACCGUAAAUGUCCGACUGGAGCCGUUCGGGCGGCUAUAAACAGACCUCAGGCCCGAAGCGUGGCGGCACCUGCCGCCGGUGGUAAAAAAGAUCGGAAGAGCACACGUCU [U7C U8C G9U C12U C13U], the “aptazyme ON/OFF ratio” value came out at 1.3.
To GGGUCGCCUUUUGAUAAUCGCGUGGAUAUGGCACGCAAGUUUCUACCGGGCACCGUAAAUGUCCGACUGGAGCCGUUCGGGCGGCUAUAAACAGACCUCAGGCCCGAAGCGUGGCGGCACCUGCCGCCGGUGGUAAAAAAGAUCGGAAGAGCACACGUCU [U7C U8C G9U C12U C13G] belongs 1.02; to GGGUCGCCCUGUCAUAAUCGCGUGGAUAUGGCACGCAAGUUUCUACCGGGCACCGUAAAUGUCCGACUGGAGCCGUUCGGGCGGCUAUAAACAGACCUCAGGCCCGAAGCGUGGCGGCACCUGCCGCCGGUGGUAAAAAAGAUCGGAAGAGCACACGUCU [U7C U8C G9C U11G C12U], 1.12; to GGGUCGCCCUGGCAUAAUCGCGUGGAUAUGGCACGCAAGUUUCUACCGGGCACCGUAAAUGUCCGACUGGAGCCGUUCGGGCGGCUAUAAACAGACCUCAGGCCCGAAGCGUGGCGGCACCUGCCGCCGGUGGUAAAAAAGAUCGGAAGAGCACACGUCU [U7C U8C G9C U11G C12G], 1.11.
To GGGUCGCCCUGACAUAAUCGCGUGGAUAUGGCACGCAAGUUUCUACCGGGCACCGUAAAUGUCCGACUGGAGCCGUUCGGGCGGCUAUAAACAGACCUCAGGCCCGAAGCGUGGCGGCACCUGCCGCCGGUGGUAAAAAAGAUCGGAAGAGCACACGUCU [U7C U8C G9C U11G C12A] belongs 1.22; to GGGUCGCCCUCUUAUAAUCGCGUGGAUAUGGCACGCAAGUUUCUACCGGGCACCGUAAAUGUCCGACUGGAGCCGUUCGGGCGGCUAUAAACAGACCUCAGGCCCGAAGCGUGGCGGCACCUGCCGCCGGUGGUAAAAAAGAUCGGAAGAGCACACGUCU [U7C U8C G9C U11C C12U C13U], 1.11; to GGGUCGCCCUCUGAUAAUCGCGUGGAUAUGGCACGCAAGUUUCUACCGGGCACCGUAAAUGUCCGACUGGAGCCGUUCGGGCGGCUAUAAACAGACCUCAGGCCCGAAGCGUGGCGGCACCUGCCGCCGGUGGUAAAAAAGAUCGGAAGAGCACACGUCU [U7C U8C G9C U11C C12U C13G], 1.08.
GGGUCGCCCUGCCAUAAUCGCGUGGAUAUGGCACGCAAGUUUCUACCGGGCACCGUAAAUGUCCGACUGGAGCCGUUCGGGCGGCUAUAAACAGACCUCAGGCCCGAAGCGUGGCGGCACCUGCCGCCGGUGGUAAAAAAGAUCGGAAGAGCACACGUCU [U7C U8C G9C U11G]: the “aptazyme ON/OFF ratio” value is 1.24.
As for GGGUCGCCCUGAGAUAAUCGCGUGGAUAUGGCACGCAAGUUUCUACCGGGCACCGUAAAUGUCCGACUGGAGCCGUUCGGGCGGCUAUAAACAGACCUCAGGCCCGAAGCGUGGCGGCACCUGCCGCCGGUGGUAAAAAAGAUCGGAAGAGCACACGUCU [U7C U8C G9C U11G C12A C13G], the “aptazyme ON/OFF ratio” value was found to be 1.1.
Consider GGGUCGCCCUGAUAUAAUCGCGUGGAUAUGGCACGCAAGUUUCUACCGGGCACCGUAAAUGUCCGACUGGAGCCGUUCGGGCGGCUAUAAACAGACCUCAGGCCCGAAGCGUGGCGGCACCUGCCGCCGGUGGUAAAAAAGAUCGGAAGAGCACACGUCU [U7C U8C G9C U11G C12A C13U], for which the “aptazyme ON/OFF ratio” value came to 1.09.
To GGGUCGCCCUGAAAUAAUCGCGUGGAUAUGGCACGCAAGUUUCUACCGGGCACCGUAAAUGUCCGACUGGAGCCGUUCGGGCGGCUAUAAACAGACCUCAGGCCCGAAGCGUGGCGGCACCUGCCGCCGGUGGUAAAAAAGAUCGGAAGAGCACACGUCU [U7C U8C G9C U11G C12A C13A] belongs 1.13; to GGGUCGCCCUGGGAUAAUCGCGUGGAUAUGGCACGCAAGUUUCUACCGGGCACCGUAAAUGUCCGACUGGAGCCGUUCGGGCGGCUAUAAACAGACCUCAGGCCCGAAGCGUGGCGGCACCUGCCGCCGGUGGUAAAAAAGAUCGGAAGAGCACACGUCU [U7C U8C G9C U11G C12G C13G], 1.11; to GGGUCGCCCUGGUAUAAUCGCGUGGAUAUGGCACGCAAGUUUCUACCGGGCACCGUAAAUGUCCGACUGGAGCCGUUCGGGCGGCUAUAAACAGACCUCAGGCCCGAAGCGUGGCGGCACCUGCCGCCGGUGGUAAAAAAGAUCGGAAGAGCACACGUCU [U7C U8C G9C U11G C12G C13U], 1.1.
To GGGUCGCCCUGGAAUAAUCGCGUGGAUAUGGCACGCAAGUUUCUACCGGGCACCGUAAAUGUCCGACUGGAGCCGUUCGGGCGGCUAUAAACAGACCUCAGGCCCGAAGCGUGGCGGCACCUGCCGCCGGUGGUAAAAAAGAUCGGAAGAGCACACGUCU [U7C U8C G9C U11G C12G C13A] belongs 1.1; to GGGUCGCCCUGCGAUAAUCGCGUGGAUAUGGCACGCAAGUUUCUACCGGGCACCGUAAAUGUCCGACUGGAGCCGUUCGGGCGGCUAUAAACAGACCUCAGGCCCGAAGCGUGGCGGCACCUGCCGCCGGUGGUAAAAAAGAUCGGAAGAGCACACGUCU [U7C U8C G9C U11G C13G], 1.12; to GGGUCGCCCUGCAAUAAUCGCGUGGAUAUGGCACGCAAGUUUCUACCGGGCACCGUAAAUGUCCGACUGGAGCCGUUCGGGCGGCUAUAAACAGACCUCAGGCCCGAAGCGUGGCGGCACCUGCCGCCGGUGGUAAAAAAGAUCGGAAGAGCACACGUCU [U7C U8C G9C U11G C13A], 1.12.
With GGGUCGCCCUGCUAUAAUCGCGUGGAUAUGGCACGCAAGUUUCUACCGGGCACCGUAAAUGUCCGACUGGAGCCGUUCGGGCGGCUAUAAACAGACCUCAGGCCCGAAGCGUGGCGGCACCUGCCGCCGGUGGUAAAAAAGAUCGGAAGAGCACACGUCU [U7C U8C G9C U11G C13U], the “aptazyme ON/OFF ratio” value was found to be 1.1.
To GGGUCGCCUUUGGAUAAUCGCGUGGAUAUGGCACGCAAGUUUCUACCGGGCACCGUAAAUGUCCGACUGGAGCCGUUCGGGCGGCUAUAAACAGACCUCAGGCCCGAAGCGUGGCGGCACCUGCCGCCGGUGGUAAAAAAGAUCGGAAGAGCACACGUCU [U7C U8C G9U C12G C13G] belongs 1.12.
As for GGGUCGCCUUUGAAUAAUCGCGUGGAUAUGGCACGCAAGUUUCUACCGGGCACCGUAAAUGUCCGACUGGAGCCGUUCGGGCGGCUAUAAACAGACCUCAGGCCCGAAGCGUGGCGGCACCUGCCGCCGGUGGUAAAAAAGAUCGGAAGAGCACACGUCU [U7C U8C G9U C12G C13A], the “aptazyme ON/OFF ratio” value was found to be 1.21.
To GGGUCGCCUUUGUAUAAUCGCGUGGAUAUGGCACGCAAGUUUCUACCGGGCACCGUAAAUGUCCGACUGGAGCCGUUCGGGCGGCUAUAAACAGACCUCAGGCCCGAAGCGUGGCGGCACCUGCCGCCGGUGGUAAAAAAGAUCGGAAGAGCACACGUCU [U7C U8C G9U C12G C13U] belongs 1.17; to GGGUCGCCUUUCCAUAAUCGCGUGGAUAUGGCACGCAAGUUUCUACCGGGCACCGUAAAUGUCCGACUGGAGCCGUUCGGGCGGCUAUAAACAGACCUCAGGCCCGAAGCGUGGCGGCACCUGCCGCCGGUGGUAAAAAAGAUCGGAAGAGCACACGUCU [U7C U8C G9U], 2.34.
To GGGUCGCCUUUCGAUAAUCGCGUGGAUAUGGCACGCAAGUUUCUACCGGGCACCGUAAAUGUCCGACUGGAGCCGUUCGGGCGGCUAUAAACAGACCUCAGGCCCGAAGCGUGGCGGCACCUGCCGCCGGUGGUAAAAAAGAUCGGAAGAGCACACGUCU [U7C U8C G9U C13G] belongs 1.03.
As to GGGUCGCCUUUCAAUAAUCGCGUGGAUAUGGCACGCAAGUUUCUACCGGGCACCGUAAAUGUCCGACUGGAGCCGUUCGGGCGGCUAUAAACAGACCUCAGGCCCGAAGCGUGGCGGCACCUGCCGCCGGUGGUAAAAAAGAUCGGAAGAGCACACGUCU [U7C U8C G9U C13A], the “aptazyme ON/OFF ratio” value came to 1.02.
Consider GGGUCGCCCUGUAAUAAUCGCGUGGAUAUGGCACGCAAGUUUCUACCGGGCACCGUAAAUGUCCGACUGGAGCCGUUCGGGCGGCUAUAAACAGACCUCAGGCCCGAAGCGUGGCGGCACCUGCCGCCGGUGGUAAAAAAGAUCGGAAGAGCACACGUCU [U7C U8C G9C U11G C12U C13A], for which the “aptazyme ON/OFF ratio” value was 1.06.
To GGGUCGCCCUGUUAUAAUCGCGUGGAUAUGGCACGCAAGUUUCUACCGGGCACCGUAAAUGUCCGACUGGAGCCGUUCGGGCGGCUAUAAACAGACCUCAGGCCCGAAGCGUGGCGGCACCUGCCGCCGGUGGUAAAAAAGAUCGGAAGAGCACACGUCU [U7C U8C G9C U11G C12U C13U] belongs 1.1; to GGGUCGCCCUGUGAUAAUCGCGUGGAUAUGGCACGCAAGUUUCUACCGGGCACCGUAAAUGUCCGACUGGAGCCGUUCGGGCGGCUAUAAACAGACCUCAGGCCCGAAGCGUGGCGGCACCUGCCGCCGGUGGUAAAAAAGAUCGGAAGAGCACACGUCU [U7C U8C G9C U11G C12U C13G], 1.07.

The record behind these values is the RNAGym collection of RNA variant scans (doi:10.1021/acssynbio.7b00057).
